# Test results published in patent US20150203840A1 (ARGEN X N V, published 2015).
# T1: human IL22R on BW-hIL22R cells (human, UniProt Q8N6P7 16-574)
# T1 sequence (looked up): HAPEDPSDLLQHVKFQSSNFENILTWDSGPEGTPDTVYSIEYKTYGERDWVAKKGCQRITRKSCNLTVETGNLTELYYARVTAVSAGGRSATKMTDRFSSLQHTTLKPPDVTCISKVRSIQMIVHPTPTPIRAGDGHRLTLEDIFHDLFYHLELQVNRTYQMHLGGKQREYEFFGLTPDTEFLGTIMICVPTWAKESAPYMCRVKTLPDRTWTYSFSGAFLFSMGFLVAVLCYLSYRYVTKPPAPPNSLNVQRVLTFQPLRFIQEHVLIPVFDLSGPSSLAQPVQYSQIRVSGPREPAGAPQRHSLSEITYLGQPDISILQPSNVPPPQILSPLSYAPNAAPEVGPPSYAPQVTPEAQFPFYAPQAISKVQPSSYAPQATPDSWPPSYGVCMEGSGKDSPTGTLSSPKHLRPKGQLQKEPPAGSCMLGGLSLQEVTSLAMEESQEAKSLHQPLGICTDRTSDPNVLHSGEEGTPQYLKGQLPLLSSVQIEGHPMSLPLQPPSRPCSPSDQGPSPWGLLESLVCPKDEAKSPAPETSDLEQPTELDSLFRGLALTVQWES
# T2: recombinant human IL22R1 (human IL22R ECD) (human, UniProt Q8N6P7 16-228, biotinylated in the ELISA of Table 4)
# T2 construct: extracellular domain; also called hIL22R; human Interleukin 22 receptor
# T2 sequence (looked up): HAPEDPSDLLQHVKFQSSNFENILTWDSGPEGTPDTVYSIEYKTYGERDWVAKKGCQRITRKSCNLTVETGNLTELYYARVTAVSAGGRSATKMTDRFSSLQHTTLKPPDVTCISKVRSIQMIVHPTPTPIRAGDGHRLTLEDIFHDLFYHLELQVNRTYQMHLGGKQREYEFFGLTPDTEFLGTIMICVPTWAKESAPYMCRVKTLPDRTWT
# T3: mouse IL22R on BaF3-mIL22R cells (mouse, UniProt Q80XZ4 16-581)
# T3 sequence (looked up): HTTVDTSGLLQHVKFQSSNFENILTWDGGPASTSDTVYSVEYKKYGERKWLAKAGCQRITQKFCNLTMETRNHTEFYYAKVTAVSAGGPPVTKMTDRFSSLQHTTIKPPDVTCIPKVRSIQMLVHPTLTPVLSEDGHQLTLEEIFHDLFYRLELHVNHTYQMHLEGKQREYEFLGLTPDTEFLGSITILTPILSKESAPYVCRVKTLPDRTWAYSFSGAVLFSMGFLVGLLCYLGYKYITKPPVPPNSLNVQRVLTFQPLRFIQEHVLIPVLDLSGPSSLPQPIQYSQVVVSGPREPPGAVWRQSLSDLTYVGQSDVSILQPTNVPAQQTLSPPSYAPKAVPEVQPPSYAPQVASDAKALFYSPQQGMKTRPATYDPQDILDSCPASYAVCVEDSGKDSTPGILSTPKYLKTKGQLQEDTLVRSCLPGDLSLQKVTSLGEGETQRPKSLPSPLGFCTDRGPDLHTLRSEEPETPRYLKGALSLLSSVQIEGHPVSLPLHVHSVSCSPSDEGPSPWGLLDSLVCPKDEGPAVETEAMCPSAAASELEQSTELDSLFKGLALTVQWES
# T4: recombinant mouse IL22R1 (mouse IL22R ECD) (mouse, UniProt Q80XZ4 16-230, biotinylated in the ELISA of Table 4)
# T4 construct: extracellular domain; also called mIL22R; mIL22R1
# T4 sequence (looked up): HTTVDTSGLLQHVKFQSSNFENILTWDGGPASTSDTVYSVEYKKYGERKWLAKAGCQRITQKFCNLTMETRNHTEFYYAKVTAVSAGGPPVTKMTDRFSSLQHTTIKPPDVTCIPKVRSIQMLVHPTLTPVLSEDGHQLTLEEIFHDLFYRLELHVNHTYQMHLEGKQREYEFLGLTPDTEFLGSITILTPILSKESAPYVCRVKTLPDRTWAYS
# How the values were obtained:
# [1] = biological target: T1, human IL22R on BW-hIL22R cells; assay: cell-based or functional assay
# [2] = biological target: T2, recombinant human IL22R1 (human IL22R …); assay: Biacore, hIL22R
# [3] = biological target: T1, human IL22R on BW-hIL22R cells; assay: cell-based or functional assay; remark: listed apart in the source
# [4] = biological target: T3, mouse IL22R on BaF3-mIL22R cells; assay: cell-based or functional assay
# [5] = biological target: T4, recombinant mouse IL22R1 (mouse IL22R …); assay: Biacore, mIL22R
# [6] = biological target: T4, recombinant mouse IL22R1 (mouse IL22R …); assay: screening of clones selected on mouse IL22R; method not detailed
Potency (pM) BW-hIL22R [1] [pM],Kd [2] [nM],IC50 pM (potency on human IL22R expressing cells) [3] [pM],Potency (pM) BaF3-mIL22R [4] [pM],Kd [5] [nM],binding result [6],Binder
124,0.29,124,790,0.45,,"197G10 (antibody, V domains shown, Vkappa-shuffled clone of 170B2 (keeps the 170B2 VH-CH1); also called VK_197G10) VH: EVQLVESGGGLVQPGGSLRLSCAASGFTFSSSWMYWVRQAPGKGLEFVSVINTRSGITHYVESVKGRFTISTDNAKNTLFLQMNSLKSEDTAVYYCATRIQGLIDYWGQGTQVTVSS VL: DIQMTQSPSSMSASLGDSVTISCQASENIGTQLFWYQQNAGQPPKLLIYGASRLQTGVPSRFSGSGSGTTFTLTISGVETGDLATYYCLQDYSWPLTFGQGTKVELK"
69,0.038,69,160,0.39,,"197B7 (antibody, V domains shown, Vkappa-shuffled clone of 170B2 (keeps the 170B2 VH-CH1); also called VK_197B7) VH: EVQLVESGGGLVQPGGSLRLSCAASGFTFSSSWMYWVRQAPGKGLEFVSVINTRSGITHYVESVKGRFTISTDNAKNTLFLQMNSLKSEDTAVYYCATRIQGLIDYWGQGTQVTVSS VL: DIVMTQSPSSLSASLGDRVTITCQASQSIRSFIDWYQQKPGQAPKLLIYGTSRLETGVPSRFSGTGSGTSFTLTISGVEAEDLATYYCLQDYSWPLTFGQGTKVELK"
87,0.01,87,105,0.31,,"196F8 (antibody, V domains shown, Vkappa-shuffled clone of 170B2 (keeps the 170B2 VH-CH1); also called VK_196F8) VH: EVQLVESGGGLVQPGGSLRLSCAASGFTFSSSWMYWVRQAPGKGLEFVSVINTRSGITHYVESVKGRFTISTDNAKNTLFLQMNSLKSEDTAVYYCATRIQGLIDYWGQGTQVTVSS VL: DIQMTQSPSSLSASLGDRVTITCQASQSISSMLAWYQQKPGQAPNLLIYGASRLQTGVPSRFSGSRSGTSFTLTISGVEAEDLATYYCLQDYSWPLTFGQGTKVELK"
57,0.089,57,,0.37,,"197D3 (antibody, V domains shown, Vkappa-shuffled clone of 170B2 (keeps the 170B2 VH-CH1); also called VK_197D3) VH: EVQLVESGGGLVQPGGSLRLSCAASGFTFSSSWMYWVRQAPGKGLEFVSVINTRSGITHYVESVKGRFTISTDNAKNTLFLQMNSLKSEDTAVYYCATRIQGLIDYWGQGTQVTVSS VL: DIQMTQSPSSLSASLGDRVTVTCQASQSIRSSLNWYQQKPGQAPKLLIYGASRLRIGVPSRFSGSASGTSFTLTISGVEAEDLATYYCLQEYAWPLTFGQGTKVELK"

# Continued, binder first:
Binder,Potency (pM) BW-hIL22R [1] [pM],Kd [2] [nM],IC50 pM (potency on human IL22R expressing cells) [3] [pM],Potency (pM) BaF3-mIL22R [4] [pM],Kd [5] [nM],binding result [6]
"170B2 (antibody, V domains shown, Llama-derived parental clone; also called VH_170B2; VK_170B2) VH: EVQLVESGGGLVQPGGSLRLSCAASGFTFSSSWMYWVRQAPGKGLEFVSVINTRSGITHYVESVKGRFTISTDNAKNTLFLQMNSLKSEDTAVYYCATRIQGLIDYWGQGTQVTVSS VL: DIVMTQSPSSLSVSLGDRVTITCQASQSIGSVNALAWYQQKPGQSLKLLIHGASRLQTGVPSRFSGSGSGTSFTLAISGVEAEDLATYYCLQDYAWPLTFGQGTKVELK",106,0.12,~106,,,
"196C2 (antibody, V domains shown, Vkappa-shuffled clone of 170B2 (keeps the 170B2 VH-CH1); also called VK_196C2) VH: EVQLVESGGGLVQPGGSLRLSCAASGFTFSSSWMYWVRQAPGKGLEFVSVINTRSGITHYVESVKGRFTISTDNAKNTLFLQMNSLKSEDTAVYYCATRIQGLIDYWGQGTQVTVSS VL: DIQMTQSPSSLSASLGDRVTITCQASQSISSLLAWYQQKPGQAPKLLIYGASRLQTGVPSRFSGSGSGTSFTLTISGVEAEDLATYYCLQDYSWPLTFGQGTKVELK",67,0.08,67,870,0.45,
"198G11 (antibody, V domains shown, Vkappa-shuffled clone of 170B2 (keeps the 170B2 VH-CH1); also called VK_198G11) VH: EVQLVESGGGLVQPGGSLRLSCAASGFTFSSSWMYWVRQAPGKGLEFVSVINTRSGITHYVESVKGRFTISTDNAKNTLFLQMNSLKSEDTAVYYCATRIQGLIDYWGQGTQVTVSS VL: DIVMTQSPSSLSASLGDRVTVTCQASQSIRSSLNWYQQKPGQAPKLLIYGASRLRIGVPSRFSGSASGTSFTLTISGVESEDLATYYCLQDYTWPLSFGSGTRLEIK",,,132,,,binds
"198B7 (antibody, V domains shown, Vkappa-shuffled clone of 170B2 (keeps the 170B2 VH-CH1); also called VK_198B7) VH: EVQLVESGGGLVQPGGSLRLSCAASGFTFSSSWMYWVRQAPGKGLEFVSVINTRSGITHYVESVKGRFTISTDNAKNTLFLQMNSLKSEDTAVYYCATRIQGLIDYWGQGTQVTVSS VL: DIQMTQSPSSLSASLGDRVTITCQASQSISSQLAWYQQKPGQAPKLLIYGASRLQTGVPSRFSGSGSGTSFTLTISGVEAEDLATYYCLQDYSWPLTFGQGTKVELK",,,,,,binds
"198C9 (antibody, V domains shown, Vkappa-shuffled clone of 170B2 (keeps the 170B2 VH-CH1); also called VK_198C9) VH: EVQLVESGGGLVQPGGSLRLSCAASGFTFSSSWMYWVRQAPGKGLEFVSVINTRSGITHYVESVKGRFTISTDNAKNTLFLQMNSLKSEDTAVYYCATRIQGLIDYWGQGTQVTVSS VL: DIVMTQSPSSLSASLGDRVTITCQATQSISTFLSWYQQKPGQTPKLLVYGASRLQTGVPSRFSGTGSGTKFTLTISGVEAEDLASYFCLQDYSWPLTFGQGTKVELK",,,89,,,binds
